Key:
[1] = target: SgEsaA_(332-725) (Streptococcus gallolyticus ATCC 43143); assay: SEC-MALS
[2] = target: SiEsaA_(328-685), fragment of Streptococcus intermedius B196 EsaA (Streptococcus intermedius B196); assay: SEC-MALS

Row | Substance | stoichiometry N [1] | stoichiometry N [2]
1 | SgEsaA_(332-725) (domain or fragment) | 2 | –
2 | SiEsaA_(328-685), fragment of Streptococcus intermedius B196 EsaA (domain or fragment) | – | 2

Reference: paper doi:10.1101/2020.08.17.254201
